Among the targets are SDCBP_1, O00560; MAGI1_6, Q96QZ7; PDZD9, Q8IXQ8; PARD3B_3, Q8TEW8; SCRIB_4, Q14160; PDLIM4, P50479; MAGI1_4, Q96QZ7; MAGI3_6, Q5TCQ9; AHNAK2, Q8IVF2.
Assay in all cases: holdup assay
Common to all, as to parameters: key: below the threshold = too weak to quantify, mostly under pKd 3.1 to 4
Holding throughout (conditions): plain residues with an end cap or a label only (N-terminal biotin on a linker: ttds)

A further assay addresses T1, GIPC1, O14908.
T1 sequence (O14908 128-223, limits assumed, looked up): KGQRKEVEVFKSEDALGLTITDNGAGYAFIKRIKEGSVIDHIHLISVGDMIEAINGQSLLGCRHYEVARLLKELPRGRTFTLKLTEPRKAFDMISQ

In a further assay the target is T2, MPDZ_11, O75970.
T2 sequence (O75970 1720-1817, limits assumed, looked up): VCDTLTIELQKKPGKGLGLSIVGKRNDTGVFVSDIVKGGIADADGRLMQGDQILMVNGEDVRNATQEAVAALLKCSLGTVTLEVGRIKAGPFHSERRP

The next assay addresses T3, PDLIM3, Q53GG5.
T3 sequence (Q53GG5 1-94, limits assumed, looked up): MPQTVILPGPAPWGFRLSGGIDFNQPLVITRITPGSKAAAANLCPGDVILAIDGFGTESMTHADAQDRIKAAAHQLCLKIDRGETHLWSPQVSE

The next assay deals with T4, SYNPO2L, Q9H987.
T4 sequence (Q9H987 1-98, limits assumed, looked up): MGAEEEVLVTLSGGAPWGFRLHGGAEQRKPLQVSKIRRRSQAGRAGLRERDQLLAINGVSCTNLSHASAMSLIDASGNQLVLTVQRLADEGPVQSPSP

For the next assay, the target named is T5, MPDZ_7, O75970.
T5 sequence (O75970 1146-1253, limits assumed, looked up): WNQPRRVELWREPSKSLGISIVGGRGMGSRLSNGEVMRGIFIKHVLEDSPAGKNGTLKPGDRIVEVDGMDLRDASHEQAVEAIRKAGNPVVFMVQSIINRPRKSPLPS

Another assay addresses T6, SHANK3, Q9BYB0.
T6 sequence (Q9BYB0 641-750, limits assumed, looked up): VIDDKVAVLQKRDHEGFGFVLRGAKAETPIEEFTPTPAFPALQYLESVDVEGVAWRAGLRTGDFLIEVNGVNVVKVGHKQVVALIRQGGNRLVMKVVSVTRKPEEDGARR

A further assay addresses T7, SNTB2, Q13425.
T7 sequence (Q13425 110-208, limits assumed, looked up): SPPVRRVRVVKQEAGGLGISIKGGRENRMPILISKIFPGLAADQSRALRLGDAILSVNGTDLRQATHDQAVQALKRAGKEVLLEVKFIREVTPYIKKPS

A further assay addresses T8, MPP1, Q00013.
T8 sequence (Q00013 66-162, limits assumed, looked up): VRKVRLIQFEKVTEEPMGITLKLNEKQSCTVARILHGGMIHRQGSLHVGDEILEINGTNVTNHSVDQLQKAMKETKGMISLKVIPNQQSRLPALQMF

The target in the next assay is T9, INTU, Q9ULD6.
T9 sequence (Q9ULD6 180-273, limits assumed, looked up): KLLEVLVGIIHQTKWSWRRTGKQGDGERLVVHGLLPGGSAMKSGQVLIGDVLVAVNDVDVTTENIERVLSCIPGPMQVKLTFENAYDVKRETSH

In another assay the target is T10, PDZD2_6, O15018.
T10 sequence (O15018 2745-2839, limits assumed, looked up): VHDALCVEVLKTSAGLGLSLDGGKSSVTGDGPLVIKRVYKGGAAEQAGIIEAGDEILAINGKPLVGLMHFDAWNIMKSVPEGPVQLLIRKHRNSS

A further assay addresses T11, PDZD2_5, O15018.
T11 sequence (O15018 2617-2716, limits assumed, looked up): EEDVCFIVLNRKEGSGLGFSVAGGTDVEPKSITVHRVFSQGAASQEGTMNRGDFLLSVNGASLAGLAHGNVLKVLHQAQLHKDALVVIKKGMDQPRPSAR

The next assay addresses T12, NHERF1_1, O14745.
T12 sequence (O14745 9-104, limits assumed, looked up): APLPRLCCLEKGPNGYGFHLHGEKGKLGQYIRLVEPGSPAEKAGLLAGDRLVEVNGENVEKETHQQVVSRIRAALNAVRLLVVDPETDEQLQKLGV

The target of another assay is T13, PDZD8, Q8NEN9.
T13 sequence (Q8NEN9 361-459, limits assumed, looked up): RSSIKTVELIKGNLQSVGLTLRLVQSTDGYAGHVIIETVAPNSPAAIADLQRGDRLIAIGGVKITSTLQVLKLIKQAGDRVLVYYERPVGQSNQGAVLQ

Another assay concerns the target T14, USH1C_3, Q9Y6N9.
T14 sequence (Q9Y6N9 447-547, limits assumed, looked up): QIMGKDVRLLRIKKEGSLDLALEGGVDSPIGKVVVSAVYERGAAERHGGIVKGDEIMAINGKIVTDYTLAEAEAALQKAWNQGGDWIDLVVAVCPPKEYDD

Chain of SCRIB_4, Q14160 (Q14160 1095-1204): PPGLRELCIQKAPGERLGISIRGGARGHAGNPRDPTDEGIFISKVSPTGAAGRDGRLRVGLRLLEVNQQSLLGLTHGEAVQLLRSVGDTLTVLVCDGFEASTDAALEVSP
Chain of PDLIM4, P50479 (P50479 1-83): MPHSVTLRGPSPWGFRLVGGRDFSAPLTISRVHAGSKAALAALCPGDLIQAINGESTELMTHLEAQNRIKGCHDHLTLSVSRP
Chain of SDCBP_1, O00560 (O00560 111-198): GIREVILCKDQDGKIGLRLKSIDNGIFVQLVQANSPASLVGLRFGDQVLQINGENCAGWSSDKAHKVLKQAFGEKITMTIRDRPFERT
Chain of MAGI3_6, Q5TCQ9 (Q5TCQ9 1014-1103): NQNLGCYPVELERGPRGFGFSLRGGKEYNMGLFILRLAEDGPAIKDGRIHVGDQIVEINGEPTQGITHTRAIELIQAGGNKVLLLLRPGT
Chain of PDZD9, Q8IXQ8 (Q8IXQ8 23-120): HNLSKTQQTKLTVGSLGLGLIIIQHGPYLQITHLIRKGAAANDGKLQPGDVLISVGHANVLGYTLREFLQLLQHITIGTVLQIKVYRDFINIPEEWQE
Chain of MAGI1_4, Q96QZ7 (Q96QZ7 other isoform, or with tags, fused parts or gaps): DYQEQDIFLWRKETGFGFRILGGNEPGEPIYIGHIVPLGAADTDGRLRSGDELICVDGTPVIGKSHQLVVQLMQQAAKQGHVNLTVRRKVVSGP
Chain of PARD3B_3, Q8TEW8 (Q8TEW8 490-594): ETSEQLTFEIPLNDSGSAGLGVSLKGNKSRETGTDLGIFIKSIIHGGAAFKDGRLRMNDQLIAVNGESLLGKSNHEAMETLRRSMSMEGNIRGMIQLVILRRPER
Chain of MAGI1_6, Q96QZ7 (Q96QZ7 1146-1238): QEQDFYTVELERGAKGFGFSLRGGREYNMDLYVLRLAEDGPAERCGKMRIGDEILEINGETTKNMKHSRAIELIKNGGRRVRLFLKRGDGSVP
Chain of AHNAK2, Q8IVF2 (Q8IVF2 108-193): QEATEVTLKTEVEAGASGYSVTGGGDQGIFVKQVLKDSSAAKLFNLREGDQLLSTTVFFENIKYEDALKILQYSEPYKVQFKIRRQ

For the molecule RLQRRRETQV [HPV18-E6, P06463], the pKd with GIPC1, O14908 was 4.44; in the assay with SDCBP_1, O00560 it was “below the threshold”; with MPDZ_11, O75970 it was “below the threshold”; with MAGI1_6, Q96QZ7, “below the threshold”; with PDLIM3, Q53GG5, “below the threshold”; in the assay with SYNPO2L, Q9H987, “below the threshold”. The pKd result with PDZD9, Q8IXQ8 is “below the threshold”; with MPDZ_7, O75970 it was “below the threshold”; with SHANK3, Q9BYB0, “below the threshold”; with SNTB2, Q13425 it was 4.58; with MPP1, Q00013 it was “below the threshold”; with INTU, Q9ULD6, “below the threshold”. The pKd result with PARD3B_3, Q8TEW8 is reported as “below the threshold”; in the assay with SCRIB_4, Q14160, “below the threshold”; with PDZD2_6, O15018 it was “below the threshold”; with PDZD2_5, O15018 it was “below the threshold”; with PDLIM4, P50479, “below the threshold”; in the assay with NHERF1_1, O14745 it was “below the threshold”. For the same molecule, the pKd with MAGI1_4, Q96QZ7 is 4.28; with PDZD8, Q8NEN9 it was “below the threshold”; in the assay with MAGI3_6, Q5TCQ9, “below the threshold”; with USH1C_3, Q9Y6N9 it was “below the threshold”.

Turning to RPLPRKVSQL [DOCK4, Q8N1I0], the pKd result was “below the threshold” with GIPC1, O14908; “below the threshold” in the assay with SDCBP_1, O00560; “below the threshold” in the assay with MPDZ_11, O75970; “below the threshold” with MAGI1_6, Q96QZ7; “below the threshold” with PDLIM3, Q53GG5; “below the threshold” in the assay with SYNPO2L, Q9H987. In addition, the pKd result was “below the threshold” in the assay with PDZD9, Q8IXQ8; “below the threshold” with MPDZ_7, O75970; “below the threshold” with SHANK3, Q9BYB0; “below the threshold” with SNTB2, Q13425; 4.29 in the assay with MPP1, Q00013; “below the threshold” in the assay with AHNAK2, Q8IVF2. Further, the pKd result is reported as “below the threshold” with PARD3B_3, Q8TEW8; “below the threshold” with SCRIB_4, Q14160; “below the threshold” with PDZD2_6, O15018; “below the threshold” with PDZD2_5, O15018; “below the threshold” in the assay with PDLIM4, P50479; “below the threshold” with NHERF1_1, O14745. The negative-log Kd (pKd) entry with MAGI1_4, Q96QZ7 is “below the threshold”; with PDZD8, Q8NEN9, “below the threshold”; with MAGI3_6, Q5TCQ9 it was “below the threshold”; with USH1C_3, Q9Y6N9, “below the threshold”.

With SSLQSLETSV [ATP2B4, P23634], the pKd result with SDCBP_1, O00560 was “below the threshold”; with MPDZ_11, O75970, “below the threshold”; with MAGI1_6, Q96QZ7 it was 4.49; with PDLIM3, Q53GG5 it was “below the threshold”; with SYNPO2L, Q9H987, “below the threshold”; with PDZD9, Q8IXQ8 it was “below the threshold”. Also, the pKd entry in the assay with MPDZ_7, O75970 is “below the threshold”; with SHANK3, Q9BYB0, “below the threshold”; with SNTB2, Q13425, 4.87; in the assay with MPP1, Q00013 it was 4.23; in the assay with AHNAK2, Q8IVF2, “below the threshold”; with INTU, Q9ULD6, “below the threshold”. Further, the pKd result with PARD3B_3, Q8TEW8 is “below the threshold”; with SCRIB_4, Q14160, 4.38; in the assay with PDZD2_6, O15018 it was “below the threshold”; with PDZD2_5, O15018 it was “below the threshold”; in the assay with PDLIM4, P50479 it was “below the threshold”; with NHERF1_1, O14745, “below the threshold”. The pKd result with MAGI1_4, Q96QZ7 is on record as “below the threshold”; with PDZD8, Q8NEN9, “below the threshold”; with MAGI3_6, Q5TCQ9, “below the threshold”; with USH1C_3, Q9Y6N9, “below the threshold”.

Regarding SKPTRRETEV [HPV35-E6, P27228], the pKd was 4.69 in the assay with GIPC1, O14908; “below the threshold” with SDCBP_1, O00560; “below the threshold” with MPDZ_11, O75970; 3.66 with MAGI1_6, Q96QZ7; “below the threshold” in the assay with PDLIM3, Q53GG5; “below the threshold” in the assay with SYNPO2L, Q9H987. Also, the pKd entry was “below the threshold” with PDZD9, Q8IXQ8; “below the threshold” in the assay with MPDZ_7, O75970; “below the threshold” with SHANK3, Q9BYB0; “below the threshold” in the assay with MPP1, Q00013; “below the threshold” with INTU, Q9ULD6; 3.73 with PARD3B_3, Q8TEW8. Besides, the pKd is 3.78 with SCRIB_4, Q14160; “below the threshold” with PDZD2_6, O15018; 3.77 in the assay with PDZD2_5, O15018; 4.16 in the assay with PDLIM4, P50479; “below the threshold” with NHERF1_1, O14745; “below the threshold” with MAGI1_4, Q96QZ7. Also, the pKd result with PDZD8, Q8NEN9 was “below the threshold”; with MAGI3_6, Q5TCQ9, 3.81; with USH1C_3, Q9Y6N9, “below the threshold”.

For the origin of these results see paper PMC9482650, “Quantitative fragmentomics allow affinity mapping of interactomes” (Nature Communications, 2022).
